Where a chain is given by its changes, count along the chain named.
Columns and labels:
Assay in all cases: BLI (Octet), biotinylated mAb on streptavidin sensors, culture supernatant
[1] = molecular target: T1, RSV181178 (I152M + K226M) (respiratory syncytial virus, subgroup B …, UniProt O36634 26-109; P13843 137-540)
T1 construct: Measured in crude culture supernatant, no furin co-transfection
T1 chain 1: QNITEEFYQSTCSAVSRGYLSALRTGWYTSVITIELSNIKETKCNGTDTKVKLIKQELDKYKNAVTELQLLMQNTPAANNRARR
T1 chain 2: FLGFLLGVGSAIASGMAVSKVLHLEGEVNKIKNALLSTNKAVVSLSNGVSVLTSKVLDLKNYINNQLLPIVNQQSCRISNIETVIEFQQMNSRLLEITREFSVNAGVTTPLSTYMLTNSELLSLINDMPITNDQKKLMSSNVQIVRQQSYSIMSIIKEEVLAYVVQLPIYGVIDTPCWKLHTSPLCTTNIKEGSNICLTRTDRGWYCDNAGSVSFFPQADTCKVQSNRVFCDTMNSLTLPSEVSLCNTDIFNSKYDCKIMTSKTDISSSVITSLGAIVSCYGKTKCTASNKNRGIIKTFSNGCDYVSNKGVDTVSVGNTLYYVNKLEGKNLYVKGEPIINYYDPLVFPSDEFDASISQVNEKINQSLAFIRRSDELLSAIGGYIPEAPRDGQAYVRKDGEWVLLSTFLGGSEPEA
Experimental: (§1) Quantitative Octet (BioLayer Interferometry) was used for measuring protein concentration in the supernatants at day of harvest and after 7 or 30 days storage at 4° C. CR9501 (an antibody specifically recognizing pre-fusion RSV F protein, which comprises the variable regions of the antibodies 58C5 as described in WO2012/006596) and CR9506 (recognizing pre-fusion and post-fusion RSV F protein and comprising a heavy chain variable region comprising SEQ ID NO: 21, and a light chain variable region comprising SEQ ID NO: 22) were biotinylated by standard protocols and immobilized on Streptavidin biosensors (ForteBio, Portsmouth, UK).
(§2) Afterwards, the coated biosensors were blocked in mock cell culture supernatant. A quantitative experiment was performed as follows: temperature 30° C., shaking speed 1000 rpm, time of the assay 300 sec. The concentration of the protein was calculated using a standard curve. The standard curve was prepared for each coated antibody CR9501 and CR9506 using the pre-fusion RSV FA protein (SEQ ID NO: 19; described previously in WO17174568) diluted in mock medium. […] The data analysis was done using the ForteBio Data Analysis 10.0.1.6 software (ForteBio).

[2] = molecular target: T2, RSV180917 (I152M + K226M + D486N + S215P + L203I + P101Q + D489Y + T357R + N371Y) (respiratory syncytial virus, subgroup B …, UniProt O36634 26-109)
T2 construct: also called RSV181917
T2 chain 1: T1 chain 1 with P76Q
T2 chain 2: T1 chain 2 with L67I, S79P, T221R, N235Y, D350N, D353Y
Experimental: as §1, §2

[3] = molecular target: T3, RSV181181 (I152M + K226M + D486N + S215P + P101Q + D489Y) (respiratory syncytial virus, subgroup B …, UniProt O36634 26-109; P13843 137-540)
T3 chain 1: T1 chain 1 with P76Q
T3 chain 2: T1 chain 2 with S79P, D350N, D353Y
Experimental: as §1, §2

[4] = molecular target: T4, RSV180907 (tag-free, RSV FB signal peptide) (respiratory syncytial virus, subgroup B …, UniProt O36634 26-109; P13843 137-540)
T4 construct: Same mature protein as RSV180913, expressed with the RSV B signal peptide; measured in culture supernatant, furin co-transfected
T4 chain 1: T1 chain 1 with P76Q
T4 chain 2: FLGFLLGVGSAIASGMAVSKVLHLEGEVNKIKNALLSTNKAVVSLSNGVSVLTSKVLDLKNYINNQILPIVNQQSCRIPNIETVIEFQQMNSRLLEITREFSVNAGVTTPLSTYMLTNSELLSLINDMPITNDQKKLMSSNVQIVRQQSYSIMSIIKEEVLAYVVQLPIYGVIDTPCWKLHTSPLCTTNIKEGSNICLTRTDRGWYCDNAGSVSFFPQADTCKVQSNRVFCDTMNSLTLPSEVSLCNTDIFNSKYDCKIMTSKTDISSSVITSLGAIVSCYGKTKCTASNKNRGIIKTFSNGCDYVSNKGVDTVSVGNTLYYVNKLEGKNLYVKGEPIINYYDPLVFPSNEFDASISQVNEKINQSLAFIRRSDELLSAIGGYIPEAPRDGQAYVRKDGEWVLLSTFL
Experimental: as §1, §2

Measured: binding result

B1: CR9506 (antibody, human IgG1, kappa, V domains shown)
VH: EVQLVQSGAEVKKPGSSVKVSCKASGGTFSRSLITWVRQAPGQGLEWMGEISLVFGSAKNAQKFQGRVTITADESTSTAHMEMISLKHEDTAVYYCAAHQYGSGTHNNFWDESELRFDLWGQGTLVTVSS
VL: DIVMTQSPSSLSASVGDRVTIACRASQSIGTYLNWYQQKPGKAPKLLIYAASSLQSGVPSRFSGSGSGTHFTLAISSLQAEDFATYSCQQSYTIPYTFGQGTKLEIKR
notes: Biotinylated for Octet; coated and also used HRP-labelled as detection antibody in the ELISA
binds: all assays above
